Test results: patent US20110091994A1, “Methods for Screening Compounds for Treating and/or Preventing an Hepatitis C Virus Infection” (priority 2008, published 2011)

Key:
HCV proteins = biological target: T1, HCV proteins (Hepatitis C virus genotype 1b, UniProt Q9WMX2); test: Validation by Y2H pairwise matrices; assay type: binding; conditions: validation of interaction with HCV protein NS3;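 also: yeast two-hybrid pairwise tests of interactions first found in Y2H screens of HCV bait proteins against human cDNA libraries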
T1 construct: expressed in transfected cells

[1] = biological target: T2, HCV ORFs (Gal4-DB fusions) (Hepatitis C virus genotype 1b, UniProt Q9WMX2); assay type: binding, HCV genotype 1b, isolate con1; conditions: HCV protein NS3 as bait; human protein as prey
T2 construct: expressed in transfected cells; host or cells: Saccharomyces cerevisiae MAV203 (IMAP1) / AH109 (IMAP2)

[2] = test system: HCV ORFs (Gal4-DB fusions); assay type: binding, HCV genotype 1b, isolate con1; conditions: human protein listed by gene symbol; the value names the HCV protein it interacts with
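For IMAP Y2H IMAP1 (number of IST) in this document: yeast two-hybrid screens using HCV genotype 1b proteins fused to Gal4-DB as baits against prey cDNA libraries from human spleen and foetal brain, IMAP1 via transformation and IMAP2 via mating.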
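For Interaction with viral protein in this document: yeast two-hybrid screens using HCV genotype 1b proteins fused to Gal4-DB as baits against prey cDNA libraries from human spleen and foetal brain, IMAP1 via transformation and IMAP2 via mating.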

T2 sequence (Q9WMX2 1027-1657): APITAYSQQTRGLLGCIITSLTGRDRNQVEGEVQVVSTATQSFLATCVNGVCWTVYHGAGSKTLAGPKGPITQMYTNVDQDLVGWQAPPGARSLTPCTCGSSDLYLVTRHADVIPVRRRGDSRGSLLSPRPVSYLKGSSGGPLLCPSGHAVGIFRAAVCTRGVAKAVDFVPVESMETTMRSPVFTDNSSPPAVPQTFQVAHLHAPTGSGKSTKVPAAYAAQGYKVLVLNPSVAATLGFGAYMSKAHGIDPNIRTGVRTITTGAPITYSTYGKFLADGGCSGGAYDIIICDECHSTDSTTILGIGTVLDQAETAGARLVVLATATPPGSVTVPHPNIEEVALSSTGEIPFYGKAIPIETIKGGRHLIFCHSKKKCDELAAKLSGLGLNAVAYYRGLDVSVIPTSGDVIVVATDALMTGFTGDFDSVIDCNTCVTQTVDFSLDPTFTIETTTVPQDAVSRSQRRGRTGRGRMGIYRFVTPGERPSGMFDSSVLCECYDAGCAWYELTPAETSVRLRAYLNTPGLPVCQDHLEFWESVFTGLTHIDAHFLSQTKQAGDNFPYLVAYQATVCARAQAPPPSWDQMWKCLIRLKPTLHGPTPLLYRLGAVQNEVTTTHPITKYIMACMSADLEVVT
T1 sequence (Q9WMX2 1027-1657): as above

Molecule	Y2H matrices (HCV proteins)	IMAP Y2H IMAP1 (number of IST) [1]	Interaction with viral protein [2]
NELL1 (protein, UniProt Q92832 22-810, looked up) Protein kinase C-binding …: FGMDPDLQMDIVTELDLVNTTLGVAQVSGMHNASKAFLFQDIEREIHAAPHVSEKLIQLFRNKSEFTILATVQQKPSTSGVILSIRELEHSYFELESSGLRDEIRYHYIHNGKPRTEALPYRMADGQWHKVALSVSASHLLLHVDCNRIYERVIDPPDTNLPPGINLWLGQRNQKHGLFKGIIQDGKIIFMPNGYITQCPNLNHTCPTCSDFLSLVQGIMDLQELLAKMTAKLNYAETRLSQLENCHCEKTCQVSGLLYRDQDSWVDGDHCRNCTCKSGAVECRRMSCPPLNCSPDSLPVHIAGQCCKVCRPKCIYGGKVLAEGQRILTKSCRECRGGVLVKITEMCPPLNCSEKDHILPENQCCRVCRGHNFCAEGPKCGENSECKNWNTKATCECKSGYISVQGDSAYCEDIDECAAKMHYCHANTVCVNLPGLYRCDCVPGYIRVDDFSCTEHDECGSGQHNCDENAICTNTVQGHSCTCKPGYVGNGTICRAFCEEGCRYGGTCVAPNKCVCPSGFTGSHCEKDIDECSEGIIECHNHSRCVNLPGWYHCECRSGFHDDGTYSLSGESCIDIDECALRTHTCWNDSACINLAGGFDCLCPSGPSCSGDCPHEGGLKHNGQVWTLKEDRCSVCSCKDGKIFCRRTACDCQNPSADLFCCPECDTRVTSQCLDQNGHKLYRSGDNWTHSCQQCRCLEGEVDCWPLTCPNLSCEYTAILEGECCPRCVSDPCLADNITYDIRKTCLDSYGVSRLSGSVWTMAGSPCTTCKCKNGRVCCSVDFECLQNN	+	3	NS3
NID2 (protein, UniProt Q14112 31-1375, looked up) Nidogen-2: LHPDELFPHGESWGDQLLQEGDDESSAVVKLANPLHFYEARFSNLYVGTNGIISTQDFPRETQYVDYDFPTDFPAIAPFLADIDTSHGRGRVLYREDTSPAVLGLAARYVRAGFPRSARFTPTHAFLATWEQVGAYEEVKRGALPSGELNTFQAVLASDGSDSYALFLYPANGLQFLGTRPKESYNVQLQLPARVGFCRGEADDLKSEGPYFSLTSTEQSVKNLYQLSNLGIPGVWAFHIGSTSPLDNVRPAAVGDLSAAHSSVPLGRSFSHATALESDYNEDNLDYYDVNEEEAEYLPGEPEEALNGHSSIDVSFQSKVDTKPLEESSTLDPHTKEGTSLGEVGGPDLKGQVEPWDERETRSPAPPEVDRDSLAPSWETPPPYPENGSIQPYPDGGPVPSEMDVPPAHPEEEIVLRSYPASGHTTPLSRGTYEVGLEDNIGSNTEVFTYNAANKETCEHNHRQCSRHAFCTDYATGFCCHCQSKFYGNGKHCLPEGAPHRVNGKVSGHLHVGHTPVHFTDVDLHAYIVGNDGRAYTAISHIPQPAAQALLPLTPIGGLFGWLFALEKPGSENGFSLAGAAFTHDMEVTFYPGEETVRITQTAEGLDPENYLSIKTNIQGQVPYVSANFTAHISPYKELYHYSDSTVTSTSSRDYSLTFGAINQTWSYRIHQNITYQVCRHAPRHPSFPTTQQLNVDRVFALYNDEERVLRFAVTNQIGPVKEDSDPTPGNPCYDGSHMCDTTARCHPGTGVDYTCECASGYQGDGRNCVDENECATGFHRCGPNSVCINLPGSYRCECRSGYEFADDRHTCILITPPANPCEDGSHTCAPAGQARCVHHGGSTFSCACLPGYAGDGHQCTDVDECSENRCHPAATCYNTPGSFSCRCQPGYYGDGFQCIPDSTSSLTPCEQQQRHAQAQYAYPGARFHIPQCDEQGNFLPLQCHGSTGFCWCVDPDGHEVPGTQTPPGSTPPHCGPSPEPTQRPPTICERWRENLLEHYGGTPRDDQYVPQCDDLGHFIPLQCHGKSDFCWCVDKDGREVQGTRSQPGTTPACIPTVAPPMVRPTPRPDVTPPSVGTFLLYTQGQQIGYLPLNGTRLQKDAAKTLLSLHGSIIVGIDYDCRERMVYWTDVAGRTISRAGLELGAEPETIVNSGLISPEGLAIDHIRRTMYWTDSVLDKIESALLDGSERKVLFYTDLVNPRAIAVDPIRGNLYWTDWNREAPKIETSSLDGENRRILINTDIGLPNGLTFDPFSKLLCWADAGTKKLECTLPDGTGRRVIQNNLKYPFSIVSYADHFYHTDWRRDGVVSVNKHSGQFTDEYLPEQRSHLYGITAVYPYCPTGRK	+	2	NS3
NID1 (protein, UniProt P14543 29-1247, looked up) Nidogen-1: LSRQELFPFGPGQGDLELEDGDDFVSPALELSGALRFYDRSDIDAVYVTTNGIIATSEPPAKESHPGLFPPTFGAVAPFLADLDTTDGLGKVYYREDLSPSITQRAAECVHRGFPEISFQPSSAVVVTWESVAPYQGPSRDPDQKGKRNTFQAVLASSDSSSYAIFLYPEDGLQFHTTFSKKENNQVPAVVAFSQGSVGFLWKSNGAYNIFANDRESVENLAKSSNSGQQGVWVFEIGSPATTNGVVPADVILGTEDGAEYDDEDEDYDLATTRLGLEDVGTTPFSYKALRRGGADTYSVPSVLSPRRAATERPLGPPTERTRSFQLAVETFHQQHPQVIDVDEVEETGVVFSYNTDSRQTCANNRHQCSVHAECRDYATGFCCSCVAGYTGNGRQCVAEGSPQRVNGKVKGRIFVGSSQVPIVFENTDLHSYVVMNHGRSYTAISTIPETVGYSLLPLAPVGGIIGWMFAVEQDGFKNGFSITGGEFTRQAEVTFVGHPGNLVIKQRFSGIDEHGHLTIDTELEGRVPQIPFGSSVHIEPYTELYHYSTSVITSSSTREYTVTEPERDGASPSRIYTYQWRQTITFQECVHDDSRPALPSTQQLSVDSVFVLYNQEEKILRYALSNSIGPVREGSPDALQNPCYIGTHGCDTNAACRPGPRTQFTCECSIGFRGDGRTCYDIDECSEQPSVCGSHTICNNHPGTFRCECVEGYQFSDEGTCVAVVDQRPINYCETGLHNCDIPQRAQCIYTGGSSYTCSCLPGFSGDGQACQDVDECQPSRCHPDAFCYNTPGSFTCQCKPGYQGDGFRCVPGEVEKTRCQHEREHILGAAGATDPQRPIPPGLFVPECDAHGHYAPTQCHGSTGYCWCVDRDGREVEGTRTRPGMTPPCLSTVAPPIHQGPAVPTAVIPLPPGTHLLFAQTGKIERLPLEGNTMRKTEAKAFLHVPAKVIIGLAFDCVDKMVYWTDITEPSIGRASLHGGEPTTIIRQDLGSPEGIAVDHLGRNIFWTDSNLDRIEVAKLDGTQRRVLFETDLVNPRGIVTDSVRGNLYWTDWNRDNPKIETSYMDGTNRRILVQDDLGLPNGLTFDAFSSQLCWVDAGTNRAECLNPSQPSRRKALEGLQYPFAVTSYGKNLYFTDWKMNSVVALDLAISKETDAFQPHKQTRLYGITTALSQCPQGHNYCSVNNGGCTHLCLATPGSRTCRCPDNTLGVDCIEQK	+	2	NS3
NEFM (protein, UniProt P07197 2-916, looked up) Neurofilament medium …: SYTLDSLGNPSAYRRVTETRSSFSRVSGSPSSGFRSQSWSRGSPSTVSSSYKRSMLAPRLAYSSAMLSSAESSLDFSQSSSLLNGGSGPGGDYKLSRSNEKEQLQGLNDRFAGYIEKVHYLEQQNKEIEAEIQALRQKQASHAQLGDAYDQEIRELRATLEMVNHEKAQVQLDSDHLEEDIHRLKERFEEEARLRDDTEAAIRALRKDIEEASLVKVELDKKVQSLQDEVAFLRSNHEEEVADLLAQIQASHITVERKDYLKTDISTALKEIRSQLESHSDQNMHQAEEWFKCRYAKLTEAAEQNKEAIRSAKEEIAEYRRQLQSKSIELESVRGTKESLERQLSDIEERHNHDLSSYQDTIQQLENELRGTKWEMARHLREYQDLLNVKMALDIEIAAYRKLLEGEETRFSTFAGSITGPLYTHRPPITISSKIQKPKVEAPKLKVQHKFVEEIIEETKVEDEKSEMEEALTAITEELAVSMKEEKKEAAEEKEEEPEAEEEEVAAKKSPVKATAPEVKEEEGEKEEEEGQEEEEEEDEGAKSDQAEEGGSEKEGSSEKEEGEQEEGETEAEAEGEEAEAKEEKKVEEKSEEVATKEELVADAKVEKPEKAKSPVPKSPVEEKGKSPVPKSPVEEKGKSPVPKSPVEEKGKSPVPKSPVEEKGKSPVSKSPVEEKAKSPVPKSPVEEAKSKAEVGKGEQKEEEEKEVKEAPKEEKVEKKEEKPKDVPEKKKAESPVKEEAVAEVVTITKSVKVHLEKETKEEGKPLQQEKEKEKAGGEGGSEEEGSDKGAKGSRKEDIAVNGEVEGKEEVEQETKEKGSGREEEKGVVTNGLDLSPADEKKGGDKSEEKVVVTKTVEKITSEGGDGATKYITKSVTVTQKVEEHEETFEEKLVSTKKVEKVTSHAIVKEVTQSD	+	1	NS3
